Results as given in paper PMC5727443.

Biological target: hypoxia-inducible factor 2α (HIF-2α), wild type (UniProt Q99814)
Assay: co-IP

Sequence of UniProt Q99814 (Q99814 whole entry): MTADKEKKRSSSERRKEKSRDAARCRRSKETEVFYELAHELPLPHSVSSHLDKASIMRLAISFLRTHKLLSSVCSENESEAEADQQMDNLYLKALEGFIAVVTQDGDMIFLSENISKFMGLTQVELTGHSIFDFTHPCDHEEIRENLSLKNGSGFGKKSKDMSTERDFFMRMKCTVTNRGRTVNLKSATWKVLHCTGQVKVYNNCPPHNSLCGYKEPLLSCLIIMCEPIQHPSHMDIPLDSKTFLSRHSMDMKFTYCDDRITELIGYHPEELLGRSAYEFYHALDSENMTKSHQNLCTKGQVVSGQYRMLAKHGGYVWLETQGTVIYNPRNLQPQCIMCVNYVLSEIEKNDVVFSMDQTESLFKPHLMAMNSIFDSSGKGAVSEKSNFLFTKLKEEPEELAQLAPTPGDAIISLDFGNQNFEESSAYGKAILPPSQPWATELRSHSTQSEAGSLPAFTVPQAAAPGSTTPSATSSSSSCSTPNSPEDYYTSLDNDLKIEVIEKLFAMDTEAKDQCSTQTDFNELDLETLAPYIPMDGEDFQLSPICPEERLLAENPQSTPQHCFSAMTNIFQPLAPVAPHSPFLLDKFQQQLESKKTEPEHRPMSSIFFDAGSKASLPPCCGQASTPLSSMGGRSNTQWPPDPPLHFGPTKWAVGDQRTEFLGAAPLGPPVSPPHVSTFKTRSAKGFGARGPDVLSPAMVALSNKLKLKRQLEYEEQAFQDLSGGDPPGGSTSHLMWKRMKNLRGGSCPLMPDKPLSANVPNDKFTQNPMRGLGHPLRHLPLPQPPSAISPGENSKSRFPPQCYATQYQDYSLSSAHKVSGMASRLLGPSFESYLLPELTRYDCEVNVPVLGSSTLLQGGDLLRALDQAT

Substance: mouse Tet1 (wild type, whole) (enzyme)
- PHD2 bound to HIF-2α with Tet1 co-expressed, fold of without Tet1: 0.47 fold
- pVHL bound to HIF-2α with Tet1 over-expressed, fold of without Tet1: 0.7 fold
